Experiment [1] deals with H1 (A/Solomonislands/3/2006) (Influenza A virus, UniProt A7UPX0). Particulars: read-out: affinity constant via yeast surface display.
Experiment [2] deals with H1 (A/NewCaledonia/20/1999) (Influenza A virus, UniProt Q6WG00). As to conditions: read-out: affinity constant via yeast surface display.
For experiment [3], the target named is H3N2 A/Victoria/361/2011. The format is binding, Influenza A.
Experiment [4] addresses H1N1 A/New Caledonia/20/1999 (Influenza A virus, UniProt Q6WG00). As to conditions: read-out: Kd (binding constant).
The next experiment deals with H2N2 A/Adachi/2/1957 (Influenza A virus, UniProt B5UA22). As to conditions: read-out: Kd (binding constant).
For the next experiment, the target named is H2 (A/Adachi/2/1957) (Influenza A virus, UniProt B5UA22). Particulars: read-out: affinity constant via yeast surface display.
A further experiment relates to H1, H2 and H3. The format is binding, Influenza A.
In experiment [5] the test system is H3N2 A/Victoria/361/2011. The format is binding, Influenza A. This is another data set of the same source.
In a further experiment the target is H3 (A/Hong Kong/1/1968) (Influenza A virus, UniProt Q91MA7). As to conditions: read-out: affinity constant via yeast surface display.
Experiment [6] has as its target HA of H3N2 A/Hong Kong/1/1968 (Influenza A virus, UniProt Q91MA7). As to conditions: read-out: Kd (binding constant).

Where only a bound is given, the exact number is not on record here.

Chain of H1 (A/Solomonislands/3/2006) (A7UPX0 1-565): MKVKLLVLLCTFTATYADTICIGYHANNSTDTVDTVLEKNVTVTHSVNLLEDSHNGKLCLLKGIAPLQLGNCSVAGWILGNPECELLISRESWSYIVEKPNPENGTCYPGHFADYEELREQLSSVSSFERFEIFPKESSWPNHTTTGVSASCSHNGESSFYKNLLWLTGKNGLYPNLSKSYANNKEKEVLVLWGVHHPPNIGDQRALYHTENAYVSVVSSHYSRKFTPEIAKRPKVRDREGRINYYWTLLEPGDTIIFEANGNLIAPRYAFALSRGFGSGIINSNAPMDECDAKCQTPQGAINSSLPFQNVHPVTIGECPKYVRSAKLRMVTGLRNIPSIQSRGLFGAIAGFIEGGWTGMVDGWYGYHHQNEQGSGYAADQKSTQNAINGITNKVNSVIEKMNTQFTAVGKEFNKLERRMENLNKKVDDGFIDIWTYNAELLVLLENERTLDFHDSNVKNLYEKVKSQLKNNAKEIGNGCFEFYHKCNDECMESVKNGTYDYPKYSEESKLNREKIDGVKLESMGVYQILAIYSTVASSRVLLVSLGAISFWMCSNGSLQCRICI

As to “GIVNVPN(P/C)NTTKYQQLARSAIAVYNYHQNAHLEFVENLN(V/C)KEQIAGKTMYYITLAATDDAGKKKIYKAKVGVVESAGWEGVEEFKLV [52solo2]”, the Kd was found to be 1.7 nM in experiment [1] and 9.1 nM in [2].
Consider “GIVNVPN(P/C)NTTKYQQLARSAIAIYNYHQNAHLEFVENLN(V/C)KEQLGEGDMYYITLAATDDAGKKKIYKAKIGVVESAGWTGVEEFKLV [52NC-2]”, for which, at H3N2 A/Victoria/361/2011 [3], the “Kd (binding constant)” value is “could not be detected”. Besides, the Kd turned out to be 534 nM in experiment [4]; 289 nM with H2N2 A/Adachi/2/1957; 9.6 nM with H2 (A/Adachi/2/1957); 4.4 nM in [1]; 27.2 nM in experiment [2]; 3.9 nM with H3 (A/Hong Kong/1/1968). For the same substance, the Kd in experiment [6] was 180 nM. In addition, in the experiment with H1, H2 and H3, the “binding to HA subtypes” value was “binding to all three subtypes H1, H2 and H3”. Further, the “binding by yeast display titrations” value in the experiment on H3N2 A/Victoria/361/2011 [5] is recorded as “could not be detected”.
Take “GIVNVPN(P/C)NTTKYQQLARRAIAIYNNNQNAHLEFVENLN(V/C)KEQTGLGIMYYITLAATDDAGKKKIYKAKIAVVESAGWVAVSEFKLV [52Sing2]”: the Kd is 17.2 nM in experiment [1] and 44.9 nM in experiment [2].
As for “GIVNVPN(P/C)NTTKYQQLARSAIAIYNYHQNAHLEFVENLN(V/C)KEQVGGMNMYYITLAATDDAGKKKIYKAKVGVVESAGWKGVEEFKLV [52solo1]”, the Kd was over 350 nM with H2 (A/Adachi/2/1957), 1.8 nM in experiment [1], 20.7 nM in experiment [2] and 35.7 nM in the experiment with H3 (A/Hong Kong/1/1968).
For “GIVNVPN(P/C)NTTKYQQLARSAIAIYNNHQNAHLEFVENLN(V/C)KEQVSYGAMYYITLAATDDAGKKKIYKAKVGVVESAGWVGVEEFKLV [52alt1-3]”, the Kd amounted to 8.5 nM with H2 (A/Adachi/2/1957) and 3 nM in the experiment with H3 (A/Hong Kong/1/1968).

The values above are taken from patent US20170198014A1, “POLYPEPTIDES AND THEIR USE FOR TREATING INFLUENZA” ([…] ITS CENTER FOR COMMERCIALIZATION, priority 2014, published 2017).
